# Measurements as given in patent US20200239575A1 (UNIVERSITY OF UTAH RESEARCH FOUNDATION, published 2020).
# T1: programmed death-1 receptor (PD-1), mouse, on cells (mouse, UniProt Q02242 25-288)
# T1 construct: whole, on cells; also called surface PD-1; PD-1^+ cells (EL4)
# T1 sequence (looked up): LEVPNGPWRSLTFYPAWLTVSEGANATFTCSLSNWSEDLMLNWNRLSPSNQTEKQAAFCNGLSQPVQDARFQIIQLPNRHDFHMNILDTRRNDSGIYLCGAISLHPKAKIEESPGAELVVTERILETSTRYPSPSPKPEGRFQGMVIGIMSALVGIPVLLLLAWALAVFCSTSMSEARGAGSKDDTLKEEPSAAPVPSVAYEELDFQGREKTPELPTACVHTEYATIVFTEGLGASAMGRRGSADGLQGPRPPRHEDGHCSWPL
# Key:
# [1] = target: T1, programmed death-1 receptor (PD-1), …; experiment: flow cytometry, Alexa Fluor 647-labelled ABD-PE, 4 °C 30 min, primary T cells, primary B cells, EL4 and B16 cells
# [2] = target: T1, programmed death-1 receptor (PD-1), …; experiment: cell-based or functional assay
# [3] = target: T1, programmed death-1 receptor (PD-1), …; experiment: flow cytometry, 4 °C 30 min, primary B cells (FIG. 8d)
# [4] = target: T1, programmed death-1 receptor (PD-1), …; experiment: flow cytometry, 4 °C 30 min, primary T cells (FIG. 8c)
# [5] = target: T1, programmed death-1 receptor (PD-1), …; experiment: flow cytometry, 37 °C 30 min, primary B cells (FIG. 8f)
# [6] = target: T1, programmed death-1 receptor (PD-1), …; experiment: flow cytometry, 37 °C 30 min, primary T cells (FIG. 8e)
# [7] = target: T1, programmed death-1 receptor (PD-1), …; experiment: flow cytometry, 4 °C 30 min, EL4 against B16 cells (FIG. 10c)
# [8] = target: T1, programmed death-1 receptor (PD-1), …; experiment: flow cytometry, 37 °C 30 min, EL4 against B16 cells (FIG. 10e)
# [9] = target: T1, programmed death-1 receptor (PD-1), …; experiment: flow cytometry, EL4 cells, competitor PD-L1-Fc 500 nM, 4 °C (FIG. 8g)
# [10] = target: T1, programmed death-1 receptor (PD-1), …; experiment: flow cytometry, binding and uptake by EL4 against B16 cells (FIG. 4B)
# [11] = target: T1, programmed death-1 receptor (PD-1), …; experiment: flow cytometry, EL4 cells, competitor PD-L1-Fc 500 nM, 37 °C (FIG. 8g)
# [12] = target: T1, programmed death-1 receptor (PD-1), …; experiment: flow cytometry dose-response on 1 million EL4 cells, 4 °C 30 min, Alexa Fluor 647-labelled; EC50 of the PD-1^+ fraction taken as Kd (FIG. 10d)
# mouse serum albumin = target: T2, mouse serum albumin (mouse, UniProt P07724 25-608); experiment: native PAGE of a 1-to-1 mixture (FIG. 14a)
# T2 construct: also called MSA; mouse albumin
# human serum albumin = target: T3, human serum albumin (human, UniProt P02768 25-609); experiment: native PAGE of a 1-to-1 mixture (FIG. 14b)
# T3 construct: also called HSA
binder,measurement,setting,value
"ABD-PE (other, Alexa Fluor 647 NHS ester label in the flow cytometry assays (sites not given), Untargeted control protein without the αPD-1 scFv; also called labeled ABD-PE) HHHHHHGGGGSLAEAKVLANRELDKYGVSDFYKRLINKAKTVEGVEALKLHILAALPGGGGSGGGGSGGGGSRHRQPRGWEQLPTGAEFLGDGGDVSFSTRGTQNWTVERLLQAHRQLEERGYVFVGYHGTFLEAAQSIVFGGVRARSQDLDAIWRGFYIAGDPALAYGYAQDQEPDARGRIRNGALLRVYVPRSSLPGFYRTSLTLAAPEAAGEVERLIGHPLPLRLDAITGPEEEGGRLETILGWPLAERTVVIPSAIPTDPRNVGGDLDPSSIPDKEQAISALPDYASQPGKPPREDLK",binding result,[1],no binding (tested: 100 nM)
"αPD-1-ABD-PE (other, Alexa Fluor 647 NHS ester label in the flow cytometry assays (sites not given), Order NH2-HisTag-GGGGS-VH-(GGGGS)3-VL-(GGGGS)3-ABD-(GGGGS)3-PE; made in E. coli Shuffle T7; theoretical molecular weight 57.9 kDa; also called the immunotoxin; the toxin) HHHHHHGGGGSEVQLQESGPGLVKPSQSLSLTCSVTGYSITSSYRWNWIRKFPGNCLEWMGYINSAGISNYNPSLKRRISITRDTSKNQFFLQVNSVTTEDAATYYCARSDNMGTTPFTYWGQGTLVTVSSGGGGSGGGGSGGGGSDIVMTQGTLPNPVPSGESVSITCRSSKSLLYSDGKTYLNWYLQRPGQSPQLLIYWMSTRASGVSDRFSGSGSGTDFTLKISGVEAEDVGIYYCQQGLEFPTFGCGTKLELKGGGGSGGGGSGGGGSLAEAKVLANRELDKYGVSDFYKRLINKAKTVEGVEALKLHILAALPGGGGSGGGGSGGGGSRHRQPRGWEQLPTGAEFLGDGGDVSFSTRGTQNWTVERLLQAHRQLEERGYVFVGYHGTFLEAAQSIVFGGVRARSQDLDAIWRGFYIAGDPALAYGYAQDQEPDARGRIRNGALLRVYVPRSSLPGFYRTSLTLAAPEAAGEVERLIGHPLPLRLDAITGPEEEGGRLETILGWPLAERTVVIPSAIPTDPRNVGGDLDPSSIPDKEQAISALPDYASQPGKPPREDLK",IC50 of cytotoxicity to EL4 cells (FIG. 2C),[2],1.1 nM
same,"IC50 of cytotoxicity to PD-1^+ primary B cells (72 h, live cell count by flow cytometry)",[2],0.47 nM
same,"IC50 of cytotoxicity to PD-1^+ primary T cells (72 h, live cell count by flow cytometry)",[2],0.43 nM
same,"IC50 of cytotoxicity to wildtype EL4 cells (MTS assay, 72 h)",[2],0.64 nM
same,"fold toxicity, wildtype EL4 cells against PD-1 knockout EL4 cells",[2],> 1000 fold
same,"fold MFI, PD-1^+ over PD-1^- primary B cells",[3],> 5 fold
same,"fold MFI, PD-1^+ over PD-1^- primary T cells",[4],> 4 fold
same,"fold MFI (binding and uptake), PD-1^+ over PD-1^- primary B cells",[5],> 7 fold
same,"fold MFI (binding and uptake), PD-1^+ over PD-1^- primary T cells",[6],> 8 fold
same,"fold MFI, EL4 over B16 cells",[7],> 3 fold
same,"fold MFI (binding and uptake), EL4 over B16 cells",[8],~12 fold
same,fold decrease of MFI with PD-L1-Fc against αPD-1-ABD-PE alone,[9],~8 fold
same,"fold binding and uptake, EL4 over B16 cells",[10],11.7 fold
same,fold decrease of MFI with PD-L1-Fc against αPD-1-ABD-PE alone,[11],~25 fold
same,Kd,[12],12 nM
"αPD-1-PE (other, Control protein without the ABD) HHHHHHGGGGSEVQLQESGPGLVKPSQSLSLTCSVTGYSITSSYRWNWIRKFPGNCLEWMGYINSAGISNYNPSLKRRISITRDTSKNQFFLQVNSVTTEDAATYYCARSDNMGTTPFTYWGQGTLVTVSSGGGGSGGGGSGGGGSDIVMTQGTLPNPVPSGESVSITCRSSKSLLYSDGKTYLNWYLQRPGQSPQLLIYWMSTRASGVSDRFSGSGSGTDFTLKISGVEAEDVGIYYCQQGLEFPTFGCGTKLELKGGGGSGGGGSGGGGSRHRQPRGWEQLPTGAEFLGDGGDVSFSTRGTQNWTVERLLQAHRQLEERGYVFVGYHGTFLEAAQSIVFGGVRARSQDLDAIWRGFYIAGDPALAYGYAQDQEPDARGRIRNGALLRVYVPRSSLPGFYRTSLTLAAPEAAGEVERLIGHPLPLRLDAITGPEEEGGRLETILGWPLAERTVVIPSAIPTDPRNVGGDLDPSSIPDKEQAISALPDYASQPGKPPREDLK",binding result,mouse serum albumin,no binding
same,binding result,human serum albumin,no binding
"αPD-1 (full IgG) (antibody, V domains shown, Rat anti-mouse PD-1 mAb, IgG2a, κ; also called intact αPD-1; αPD-1 IgG) VH: EVQLQESGPGLVKPSQSLSLTCSVTGYSITSSYRWNWIRKFPGNRLEWMGYINSAGISNYNPSLKRRISITRDTSKNQFFLQVNSVTTEDAATYYCARSDNMGTTPFTYWGQGTLVTVSS VL: DIVMTQGTLPNPVPSGESVSITCRSSKSLLYSDGKTYLNWYLQRPGQSPQLLIYWMSTRASGVSDRFSGSGSGTDFTLKISGVEAEDVGIYYCQQGLEFPTFGGGTKLELK",Kd,[12],3.4 nM
